Laboratory results: the RNAGym collection of RNA variant scans (doi:10.1073/pnas.2313332121)

B1: TPR t1 (parent)
chain: GACCAAUCUGCCCUCAGAGCUCGAGAACAUCUUCGGAUGCAGAGGAGGCAGGCUUCGGUGGCGCGAUAGCGCCAACGUCCUCAACCUCCAAUGCAUCCCACCACAUGAUGAUGCCUGAAGAGCCUUGGUUUUUUG

Variants of: B1
Test: polymerase ribozyme fitness, log enrichment relative to wild type (log ratio); higher = more active; in vitro selection for triplet polymerase activity
Method in brief: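 Genotype fitness is the logarithm of its enrichment divided by wild-type enrichment, using inverse-variance-weighted averages of replicates. That logarithm is base 2. Enrichment was measured by Illumina sequencing of input and output libraries from one triplicate in vitro selection round, with frozen incubation at −7 °C, on PCR-built, transcribed mutant libraries of each subunit of a heterodimeric triplet polymerase ribozyme, retaining genotypes with ≥10 input reads and ≥1 read per output.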

Variant | polymerase ribozyme fitness (log ratio)
G39U C53U G61U C123A G135U | -0.952
G93A G120A | 0.446
A6C C12A G52U G61A | -1.1
A50U U109A A111C G120U A121G | -6.95
G44C G45A G61U U78G | -4.37
C22G C40A | -4.68
C53A C104A | -1.8
A50G G128C | -1.8
A50U G63A U106C | -3.09
G71C U92A A119U C124A | -3.83
A50C G60C | -1.73
U33G C34A G48U G117C | -7.42
G58U G69A A111C | -5.38
U32G G122A | -7.09
A6U C8G G60A U130C | -0.0856
U7G G45C G77A C82A C98A | -6.73
C13U G39C C72U U106G | -2.03
C12U C70U C76G U132C | -0.684
G57A G60U C88U C94U | -1.24
C8G A91C G122A | -0.3
C13A C49G | -1.06
U87A U92A | -2.55
U9G A37U G42C C86A U112A | -2.41
G61A G117C | -2.99

Variant | polymerase ribozyme fitness (log ratio)
C15G C76G C101A | -3.53
A50C A74U | -1.45
G48U C62A G127C | -3.44
A5U G69U | 0.406
C20U C102U | -2.92
C73A G107A | -5.21
G69C C70U C80U U112G G117U A118U | -7.19
A18C U106A | -3.06
A5U G71U C72U C101G G117U | -5.12
A37U A43G C86G | -2.33
A46U G71A C72G A119G | -1.69
U7A G19U U87G | -3.3
C70A C101U U106C | -1.6
G69A C79A A111G | -5.28
U21A U112A | 1.06
C8A A84U C102A | -1.91
C53U C97G | -4.59
C89G C115A G120C | -1.16
C56A C82U C104U G122A U125A | -1.2
G57A C82A | -0.596
C8G C62U U106A G113U | -1.94
C3U U7G A29G C101U U106C | -4.76
C12G C56G | -1.05
A74U G120A | 0.0292

Variant | polymerase ribozyme fitness (log ratio)
C40A G45A C56U G110C | -6.54
U9A A119G | 0.948
U9C A27C | -2.15
G71C A108G | -2.34
C56G G61A | -2.31
A27C A50G G63U G110C U125G | -6.71
U7G G71U | 0.698
A84C C94A | -1.23
G10A G36A C56A A105U U112A | -3.87
C8U A24G G113U C114U G122A | -1.73
C53G C124A | 0.714
A2U C4U G61U C101A G127C | -3.03
U21G G52A C102A C124U | -2.14
G19U C89G | -4.36
A5G G36U G48A G61C G122U C123U | -1.93
C4G C12A G45A G71U A100U U106A | -2.68
A27G G47C A100U | -4.85
C49A A50G G52U A105U | -1.36
U14A A83U C86A U112A U131A | -2.42
A46C C101G | -2.34
C12A G36U G48A G63C C123A | -0.6
C4A C56A G69U A90C | -2.84
C8U C53U C76U | 0.843
C11A A37U G51U C56U A68U C98A U109A | -8.64

Variant | polymerase ribozyme fitness (log ratio)
U55A C86G U130A | -0.641
G44C G69A | -4.37
G39A A74G | -0.641
C31A C115A | -4.37
C12G C49A G77C | -0.254
U87C G113A | -0.807
A2U C12U | -2.36
C12U G71A U92G U96A | -5.06
C72G C115A | -0.17
A41U A46C A91G U112A | -3.27
C40U U112A U116C | -1.95
G44C G60A | -1.01
C40G G71U A105U | -3.41
C49U U54C G117U G128A | -5.68
A18C C89G U106A | -2.89
U54A U112A G117C | -3.84
C8A U38A A46C C72U | -1.72
C56G G61A U78G C88U U112A | -0.105
C70A C99U U109A | -6.83
C72U C104A | -2.05
C70G C102A | -5.59
G107A C114U | -3.83
A46U U55A A121G | 0.98
C8A C12U A16U C40A C62U U87A | -1.51

Variant | polymerase ribozyme fitness (log ratio)
G35C G61A A121U U126A | -3.79
C40U G42C | -2.23
C3U A5G C8G C11G C73U C99A U109A G120A | -5.15
G51A G77C U116C A118C | -5.43
C11U U125A | -0.822
C8U A41U C97U | -0.942
C13G G48A G63A A83C | -3.74
C20G A100U U112G | -5.11
A27C G61U G110A C123G | -3.8
A43U C79U | -0.702
C34G G44A A90G C101U A121U | -5.28
C49G G71U | -1.7
C56A C79U U109A C123G | -6.51
A41G A43U G61U C88G C94G G117A | -7.23
G93A G110C | -5.32
U14G C49A U96A | -3.85
A100C U106A | -0.525
A2U G63C | -3.13
C4G G120C | -1.15
C12G A26C G60U A121U C124A U131G | -3.72
C53U G57C A83C | -0.254
C13U G45A A84U U87A | -1.98
C49G G63C A111G G120A | -2.1
U7A G122U | -1.47

Variant | polymerase ribozyme fitness (log ratio)
C3A C15G C72G G117C A119U | -0.76
C8U A41U C73A | -0.9
G42A G58A | -1.77
U87G C99U | -3.22
A27U C70G | -6.31
A26U G58U | -4.66
A6C C8A U32C A84U A90G G110C C114U | -5.68
A2U C88A A121U | -0.332
C104U G117U | -0.481
G63A U133G | -1.23
G48C G60A C94G C115U | -3.74
C64U U112G | -0.0625
C49U G93A C97U U116C | -3.84
U59A C62G U87A U129C U130G | -4.15
U32A G48C | -5.23
U78C C88U | 0.285
G51C C73G C114A | -6.6
C22G G60A | -3.33
C15U G45A C56A G77C C88G G117C C123U | -4.21
C70G U78C | -2.66
C11A U96A G113C | -5.3
C82U A119U | -0.592
U7G G36A A50C | -0.431
A41U G44C G47U C70U A84C A108U G117U | -6.98

Variant | polymerase ribozyme fitness (log ratio)
U32C A84U C123G U131C | 1.03
C15A A43G U96C U112C | -2.05
G51U G120U | -3.69
A24G G58U | -1.2
C28A C72U A100C G120A | -4.36
C20A A26G G110U | -4.8
G42A G117C | -3.8
A50G C104U | -0.208
G69A G93U | -4.03
A41U G57C C62U | -0.95
G44A U55A C70U C85G G113A | -4.29
G48C A50G C53U C73G | -1.36
G58C C72U C123G G128A | 0.86
A46U G71A C73A A91G | -5.51
A43C G77A | -2.79
U59G C88U | 0.0468
G42U C49A C53A U59C C82U | -2.94
A43C C53A C56A C72A | -2.36
C72U G127U | -1.84
U33A C86U | -4.21
G48U G120A C123U | 0.409
A27U G120A | -1.65
U21A A24G G36U G61C G120U U132A | -3.58
